± gives the uncertainty stated by the source.
Test: self-splicing fitness, log relative to wild type (ln ratio); higher = more splicing; Tetrahymena group I intron in knt gene, E. coli kanamycin selection, DiMSum; sequences stand for … in CUCUCU…GGAGGGAAAAGUUAUCAGGCAUGCACCUGGUAGCUAGUCUUUAAACCAAUAGAUUGCAUCGGUUUAAAAGGCAAGACCGUCAAAUUGCGGGAAAGGGGUCAACAGCCGUUCAGUACCAAGUCUCAGGGGAAACUUUGAGAUGGCCUUGCAAAGGGUAUGGUAAUAAGCUGACGGACAUGGUCCUAACCACGCAGCCAAGUCCUAAGUCAACAGAUCUUCUGUUGAUAUGGAUGCAGUUCACAGACUAAAUGUCGGUCGGGGAAGAUGUAUUCUUCUCAUAAGAUAUAGUCGGACCUCUCCUUAAUGGGAGCUAGCGGAUGAAGUGAUGCAACACUGGAGCCGCUGGGAACUAAUUUGUAUGCGAAAGUAUAUUGAUUAGUUUUGGAGUACUCGUGGUCG
Summary of the method: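 Fitness was computed with DiMSum as the error-weighted combination of replicate fold changes, kanamycin versus none, each normalised to wild type. The library randomised all eight intron nucleotides of the P1ex region, with the intron placed in the knt kanamycin-resistance gene on pET-22b(+) in E. coli BL21(DE3). Six replicate transformations were grown overnight at 37°C or 30°C on LB agar with or without 25 μg/mL kanamycin, plus 100 μg/mL carbenicillin, 50 μM IPTG and 0.2% rhamnose. Pooled colonies were amplicon-sequenced on an Illumina HiSeq 2500.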

| Sequence | self-splicing fitness (ln) (37 °C) | self-splicing fitness (ln) (30 °C) |
| --- | --- | --- |
| CGUGAGCAAUAUUACGCAAA | -1.84 ± 0.46 |  |
| CCCAAGCAAUAUUACGCGAU | -2.5 ± 0.19 | -3.93 ± 0.21 |
| CAUCAGCAAUAUUACGUCAA | -2.38 ± 0.15 | -3.09 ± 0.15 |
| CGAAAGCAAUAUUACGUUAA | -1.42 ± 0.12 | -2.27 ± 0.15 |
| AGGCAGCAAUAUUACGAGCC | -1.4 ± 0.21 | -2 ± 0.14 |
| GCGGAGCAAUAUUACGUUGA | -2.31 ± 0.32 | -2.63 ± 0.32 |
| AAGUAGCAAUAUUACGAUGC | -0.209 ± 0.15 | -2.76 ± 0.16 |
| UGCGAGCAAUAUUACGAUAC | -1.45 ± 0.32 | -2.68 ± 0.28 |
| AAGAAGCAAUAUUACGGGCG | -0.421 ± 0.11 | -1.48 ± 0.081 |
| UGCGAGCAAUAUUACGUCGU | -3.4 ± 0.37 | -3.64 ± 0.25 |
| UAUCAGCAAUAUUACGUGCU | -2.1 ± 0.16 | -3.64 ± 0.21 |
| CGGCAGCAAUAUUACGAACA | -0.204 ± 0.12 | -0.789 ± 0.096 |
| GAUUAGCAAUAUUACGGGGG | -2.72 ± 0.24 | -4.1 ± 0.34 |
| CUUUAGCAAUAUUACGUGUG | -0.61 ± 0.08 | -1.6 ± 0.094 |
| GUACAGCAAUAUUACGCCGG | -2.45 ± 0.24 | -3.87 ± 0.39 |
| UGCUAGCAAUAUUACGUUGA | -2.43 ± 0.24 | -2.84 ± 0.18 |
| UCUAAGCAAUAUUACGCUCG | -1.36 ± 0.18 | -1.43 ± 0.2 |
| GCGCAGCAAUAUUACGAGAA | -0.894 ± 0.21 | -2.67 ± 0.21 |
| CCCCAGCAAUAUUACGCUUC | -2.39 ± 0.27 | -4.6 ± 0.32 |
| ACAGAGCAAUAUUACGUUCU | -3.29 ± 0.29 | -3.89 ± 0.26 |
| GGCGAGCAAUAUUACGCCGU | -1.28 ± 0.45 | -3.44 ± 0.47 |
| AGAGAGCAAUAUUACGCUAC | -2.33 ± 0.45 |  |
| GGGGAGCAAUAUUACGCUUG | -0.967 ± 0.18 | -2.43 ± 0.17 |
| GAUUAGCAAUAUUACGUCGU | -1.13 ± 0.17 | -2.56 ± 0.19 |
| AGGCAGCAAUAUUACGGUGG | -2.88 ± 0.23 | -3.05 ± 0.16 |
| CGCGAGCAAUAUUACGCGUC | -2.68 ± 0.22 | -3.67 ± 0.28 |

| Sequence | self-splicing fitness (ln) (37 °C) | self-splicing fitness (ln) (30 °C) |
| --- | --- | --- |
| AUCCAGCAAUAUUACGCUUA | 0.389 ± 0.094 | -0.592 ± 0.064 |
| CUUUAGCAAUAUUACGUUGA | -3.01 ± 0.35 |  |
| AGGAAGCAAUAUUACGUUAC | -3.18 ± 0.28 | -2.66 ± 0.14 |
| UGCCAGCAAUAUUACGAUGG | -2.16 ± 0.18 | -3.49 ± 0.2 |
| UCAUAGCAAUAUUACGCUAG | -1.34 ± 0.2 | -3.15 ± 0.22 |
| UACUAGCAAUAUUACGACUG | 0.113 ± 0.13 | -0.572 ± 0.095 |
| ACGGAGCAAUAUUACGGGUC | -2.58 ± 0.38 |  |
| GCGCAGCAAUAUUACGAGCU | -1.74 ± 0.16 | -3.19 ± 0.28 |
| AUUUAGCAAUAUUACGUCCG | -0.728 ± 0.22 | -1.76 ± 0.18 |
| GCCGAGCAAUAUUACGGUGA | -0.176 ± 0.095 | -1.49 ± 0.088 |
| CUCAAGCAAUAUUACGCGUA | -1.78 ± 0.15 | -3.49 ± 0.22 |
| CCACAGCAAUAUUACGAGAC | -3.01 ± 0.23 | -3.7 ± 0.2 |
| CUAUAGCAAUAUUACGAUUA | -0.967 ± 0.19 | -3.05 ± 0.29 |
| AGAGAGCAAUAUUACGCACU | -2.41 ± 0.32 | -3.16 ± 0.34 |
| UGAAAGCAAUAUUACGCUCG | 0.141 ± 0.18 | -1.22 ± 0.14 |
| UGAUAGCAAUAUUACGGCUA | 0.0243 ± 0.14 | -0.455 ± 0.14 |
| GCGAAGCAAUAUUACGCUUC | -2.58 ± 0.29 | -4.53 ± 0.46 |
| GUGCAGCAAUAUUACGGCGU | -1.93 ± 0.17 | -1.58 ± 0.096 |
| UAUAAGCAAUAUUACGGGCG | 0.339 ± 0.17 | -0.413 ± 0.14 |
| AUAUAGCAAUAUUACGUGUC | -1.88 ± 0.32 | -4.06 ± 0.34 |
| ACCCAGCAAUAUUACGUAAA | -0.513 ± 0.075 | -0.691 ± 0.053 |
| AUCAAGCAAUAUUACGUGAG | 0.349 ± 0.073 | -0.619 ± 0.046 |
| UGUCAGCAAUAUUACGCGCA | -0.608 ± 0.14 | -1.67 ± 0.13 |
| UCUGAGCAAUAUUACGUGUA | -0.868 ± 0.13 | -2.67 ± 0.18 |
| AGUCAGCAAUAUUACGUGCG | -0.317 ± 0.088 | -0.277 ± 0.078 |
| ACGAAGCAAUAUUACGAGUU | -1.91 ± 0.15 | -3.04 ± 0.11 |

| Sequence | self-splicing fitness (ln) (37 °C) | self-splicing fitness (ln) (30 °C) |
| --- | --- | --- |
| GUCAAGCAAUAUUACGACAC | -0.114 ± 0.14 | -0.691 ± 0.12 |
| CGACAGCAAUAUUACGGCAA | -1.58 ± 0.17 | -2.12 ± 0.21 |
| AAACAGCAAUAUUACGCCCU | 0.201 ± 0.16 | -0.534 ± 0.11 |
| CUUAAGCAAUAUUACGUCAA | -2.33 ± 0.21 | -3.38 ± 0.35 |
| UACUAGCAAUAUUACGGCUU | 0.146 ± 0.12 | -1.2 ± 0.096 |
| GGAUAGCAAUAUUACGAGAU | 0.361 ± 0.15 | -3.46 ± 0.32 |
| ACAAAGCAAUAUUACGGAAG | -1.61 ± 0.11 | -2.47 ± 0.091 |
| UUAAAGCAAUAUUACGCGUU | -1.49 ± 0.13 | -2.44 ± 0.12 |
| GGAUAGCAAUAUUACGCUUA | -0.532 ± 0.15 | -1.88 ± 0.18 |
| UAGCAGCAAUAUUACGGUAA | -1.13 ± 0.11 | -1.32 ± 0.09 |
| AGGCAGCAAUAUUACGGAUU | 0.356 ± 0.098 | -1.08 ± 0.077 |
| GCCGAGCAAUAUUACGGAAG | -0.897 ± 0.15 | -2.65 ± 0.23 |
| GGCGAGCAAUAUUACGCCUA | -1.76 ± 0.23 |  |
| UAUCAGCAAUAUUACGAUAA | -0.065 ± 0.092 | -0.166 ± 0.081 |
| GUCAAGCAAUAUUACGUACA | -1.73 ± 0.098 | -3.13 ± 0.14 |
| GUCAAGCAAUAUUACGCAGC | -3.49 ± 0.35 |  |
| UACGAGCAAUAUUACGAAAA | -2.28 ± 0.39 | -3.03 ± 0.44 |
| UUGUAGCAAUAUUACGAGCC | -1.78 ± 0.34 | -1.8 ± 0.27 |
| CAAGAGCAAUAUUACGUAAC | -2.94 ± 0.43 |  |
| CUGUAGCAAUAUUACGGCAG | -1.32 ± 0.24 | -3.85 ± 0.33 |
| UAAUAGCAAUAUUACGUGCC | -1.47 ± 0.31 | -3.27 ± 0.43 |
| AGAUAGCAAUAUUACGAUUG | -1.81 ± 0.18 | -1.65 ± 0.11 |
| CUACAGCAAUAUUACGUUUC | -2.7 ± 0.21 | -3.69 ± 0.16 |
| GGCAAGCAAUAUUACGGUUA | 0.577 ± 0.074 | -0.0834 ± 0.075 |
| AUAGAGCAAUAUUACGCGCA | -0.253 ± 0.17 | -0.749 ± 0.14 |

— the supplement of paper PMC7877785
